± gives the uncertainty stated by the source.
Assay: amyloid nucleation score (Sup35N fusion, yeast selection) (log enrichment); library NNK3; higher = more nucleation; inactive = no reads after selection
Procedure, shortened: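 DiMSum was used to calculate nucleation scores as log enrichment of output over input reads, centred on the mode score of non-aggregating sequences. Sequences with fewer than 100 input reads were not scored. Input and output came from Illumina sequencing of plasmid inserts in psi-negative yeast expressing peptides of 20 random codons fused to Sup35N, induced 24 hours with 100 μM copper sulfate and then grown 7 days at 30°C on medium lacking adenine and uracil.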

Substance	amyloid nucleation score
KYFRNLTVRKTKWE	inactive
KYNTCSEV	inactive
KYVAKFSSLILTFL	inactive
KYVYFMSVFCEVCSRAHRVV	1.24 ± 0.1
LAGIMCCEKVYCGPRDGVLG	1.69 ± 0.12
LAIVRRCWNLRYAGYEI	inactive
LAIYTVRSQFKVMCGVQSIR	0.85 ± 0.16
LAPFV	inactive
LAQMVNGRITDHYTLFRSRT	inactive
LASQELLFVRIRDSLAKCGV	inactive
LATLLTMWRGSLRYNPLKRL	-0.354 ± 0.48
LAVFKFDRSLIWDTTVRVFH	inactive
LAVTFVHRLCWILLFWD	inactive
LCEEYYSINTWFRYVNVDIL	inactive
LCFNR	inactive
LCISVPNFSLAFLSLGWLCK	inactive
LCITIVSRWVVGVFHQMFYT	-0.219 ± 0.68
LCIWNWFLSSNRMLRKLAD	inactive
LCKCLLIEFCYVVK	0.772 ± 0.12
LCLGFVHPVIPFWIAML	inactive
LCLLYIGTSTIYGHECPDKT	inactive
LCNSVAYPDSGTVRLLKREL	0.005 ± 0.6
LCNSVRNGNYYTGYGVTLYV	inactive
LCSYGVGWD	inactive

Substance	amyloid nucleation score
LCTSADYWSHKNRGRAYSRR	inactive
LCVIVTAVKGFTVPWHNFFL	inactive
LDAYLWNNCMYVYHLEPYSW	inactive
LDGTGCDGPLARKNCGRNAV	inactive
LDLIRY	inactive
LDLLMGV	inactive
LDLSLMHGMFTYFGVHMMMP	inactive
LDMPCILLYLRSNWGRFG	inactive
LDMSFSGYTRVLARSISTDA	0.474 ± 0.65
LDMSLACPRG	-0.051 ± 0.77
LDNVKDVRYWIVCTQWWNRV	inactive
LDSAYRTVDGSICTTSYREH	inactive
LDSGFICMTELIGVVPH	inactive
LDWCAYWVSVISRWN	inactive
LEDSLPQIPTQIVGWWFLKM	inactive
LENLLGMWVSCAWLSGSHFV	inactive
LEREDGVHWLMEEWVWCVDW	inactive
LESFWFMTGFF	inactive
LEYCVNL	inactive
LEYDRTFKILFCGGSGWHYS	inactive
LEYKYVGLSKFDALIRQWFL	inactive
LEYLKV	inactive
LFANTYVV	inactive
LFCAV	inactive

Substance	amyloid nucleation score
LFDLRDNVCSRVSRNYTAGA	inactive
LFDMLMHTSPC	inactive
LFFYRMYDGTWKGDLYIASE	inactive
LFGTFQWVDWGLFIL	inactive
LFHIQNESGVSYIKWFSLSI	0.553 ± 0.27
LFLFQFRYGSWGFRGYMVGR	0.837 ± 0.27
LFLMLG	inactive
LFLVIYYVFMYVA	inactive
LFMEYWSVATCRNSGIVFIV	inactive
LFMMCGHMEYAIVKNRVDKS	0.016 ± 0.46
LFMSPVKSAWRIVCGNKFSQ	-0.642 ± 1.1
LFNGSSFITCSRTLGVL	inactive
LFNYVSMPANSSSRYTGMLL	inactive
LFPLMKQYLARGFSQDIRSA	inactive
LFPSADLATITG	inactive
LFRTDFMQTLLCHTIQLLYP	inactive
LFSICINICLY	1.79 ± 0.092
LFSLIVNTRLETLEFKGQIP	1.02 ± 0.11
LFSNNNCLNIWVWLV	2.19 ± 0.081
LFSQCSLITHG	inactive
LFTLTWSWQLKGFFYYHGYV	inactive
LFTYVPDFSGLTLSTICCLV	0.458 ± 0.35
LFVLGPDRLDCAQCKLLRDR	inactive
LFVLIDYNRYP	inactive

Substance	amyloid nucleation score
LFVWRSMNRFFQVYVLWSAE	inactive
LFVYSWKRFDGNWNKLSWNR	inactive
LFWYTAH	-0.361 ± 0.38
LFYGSTCIGTDM	-1.07 ± 1.1
LFYYSRTVESYLSNVCLVIR	inactive
LGDYSLTE	inactive
LGNKGNEMPLRSKVKRWFLL	inactive
LGNTCKIDWRISYHMTPSDI	inactive
LGQRWHVMLVLMSVYIF	inactive
LGRAQYETQFSATSVRLEPG	-0.142 ± 0.82
LGTTSYRV	inactive
LGVEVSMMTWCRMSSSMLMT	inactive
LGVLMLQSTRFAAWVSSLGR	inactive
LGWGHACMKFVDHCVRSSRS	inactive
LGYWKFSIRHFEGGRLQIHF	2.7 ± 0.056
LHAMPLEGFLHLCPKLTCHQ	0.676 ± 0.18
LHCSVSSQTELVPTENRGGW	inactive
LHHSVG	inactive
LHKTTMYFRKISLRRFEMLL	inactive
LHLAMSRTLSHSPHSCV	inactive
LHPSRLDGT	0.411 ± 0.25
LHRCSLSKNDSAQSMMLTGC	inactive
LHRLRKWRRLY	inactive
LHSIFDSVHSCMRFWMIWSE	inactive

Substance	amyloid nucleation score
LHSVGVPMAPVKGTMWERER	inactive
LHTMGMSVGGMAMNKIDCPN	inactive
LIASLRIWPRESMPR	inactive
LICYQDLRLLAPWVQG	inactive
LIFALRFSLSVSCSCAKCFR	inactive
LIFLTMVSLLFGDQRRSGVQ	0.221 ± 0.54
LIGDNRTGEVALYRFGSRMG	inactive
LIICLYSTAGRGIRWSDSTA	inactive
LIIHIFLVWDWSSIERRSIS	inactive
LILYSLGNNTHEMIYLWSNR	inactive
LIQPKSR	inactive
LIRCLVRSNVEFNNMGWWSS	inactive
LIRHFNKRVTSCNVVLLYNG	inactive
LIRRSWSYCVLVSCTDGSHS	inactive
LISMYHHCSGHLVAQDTVSV	inactive
LIWIVVGLSCYSTRL	1.09 ± 0.13
LIYRHLGYCYNRGCWLVSWH	inactive
LIYRSLPFSCLSSGV	inactive
LKCSR	inactive
LKDNPNSLWC	-0.224 ± 1.1
LKGVKCVHSCWELPR	-0.117 ± 1.1
LKGVYSERPNRDAG	inactive
LKIRKFLTFKFSSALIIVVC	inactive
LKKYCMYMSSY	inactive

Substance	amyloid nucleation score
LKLSSC	0.739 ± 0.17
LKLYDGSFAFLKCTSFMFNG	1.19 ± 0.17
LKSCGMRVSKCCFIDICELC	0.022 ± 0.75
LKSDI	inactive
LKSSPNPFMNNGFIISAILG	inactive
LKSWDTIWVEDNYSLC	-0.148 ± 0.81
LKVRLALLCRSEQRSPSTEV	inactive
LLAMPNQRWGTTLLYVQDWF	inactive
LLCMTPNIVNSRLMTYYPCH	inactive
LLCVDSTKTMIAYD	inactive
LLDCFKLYSSHLAEGRTTVT	inactive
LLDNFY	inactive
LLEIDVGISRCLGVTSETFW	inactive
LLFML	inactive
LLHPYARVDMRVQ	inactive
LLHTQMALGSLCVGYKIWLG	inactive
LLHVVFNTFLYRLEPEYTSK	inactive
LLIQNV	inactive
LLISDMGFNIVVLMTVSCFY	0.049 ± 0.29
LLIVNWVFRILVYRTTRGLR	inactive
LLKGFSCFLNR	inactive
LLKLRIQIKVWTS	inactive
LLLDNITLGLWEFIRYRCGW	inactive
LLLIKPRKVPLIEVCGWETV	inactive

Substance	amyloid nucleation score
LLLTSVL	inactive
LLMDYYFVGLKLVPFAVPKV	1.22 ± 0.15
LLMKMHDAIAG	inactive
LLMSLL	0.09 ± 0.88
LLNDCYIRNKGLPHDERVWG	inactive
LLQSLGGKESNLGK	inactive
LLRRLYLTLACPFYLMHTKC	inactive
LLRSYFVVAC	inactive
LLSIYCY	inactive
LLSLIT	inactive
LLSTTSAVAGGMACVSRNMW	inactive
LLTFALIL	0.462 ± 0.19
LLTFSH	inactive
LLTVSLPMDGST	inactive
LLTWMIG	0.714 ± 0.29
LLVFSTGHARRFFSSYESRG	1.28 ± 0.09
LLVLLVFTALY	inactive
LLVMSQVKYRHMSAAPA	inactive

— the supplement of paper PMC12042874
